The results in this text go back to US20230312698A1 (NANJING GENSCRIPT BIOTECH, published 2023).

Broadly, the EC50 is the midpoint of the concentration-response curve. A higher EC50 goes with a less potent agent.

Positions count from the first letter of the chain named.

To fix the notation:
T1: membrane-anchored cyno Ang2 protein expressed on CHO-K1 cells (cyno, UniProt A0A2K5VNX6 19-496)
T1 chain: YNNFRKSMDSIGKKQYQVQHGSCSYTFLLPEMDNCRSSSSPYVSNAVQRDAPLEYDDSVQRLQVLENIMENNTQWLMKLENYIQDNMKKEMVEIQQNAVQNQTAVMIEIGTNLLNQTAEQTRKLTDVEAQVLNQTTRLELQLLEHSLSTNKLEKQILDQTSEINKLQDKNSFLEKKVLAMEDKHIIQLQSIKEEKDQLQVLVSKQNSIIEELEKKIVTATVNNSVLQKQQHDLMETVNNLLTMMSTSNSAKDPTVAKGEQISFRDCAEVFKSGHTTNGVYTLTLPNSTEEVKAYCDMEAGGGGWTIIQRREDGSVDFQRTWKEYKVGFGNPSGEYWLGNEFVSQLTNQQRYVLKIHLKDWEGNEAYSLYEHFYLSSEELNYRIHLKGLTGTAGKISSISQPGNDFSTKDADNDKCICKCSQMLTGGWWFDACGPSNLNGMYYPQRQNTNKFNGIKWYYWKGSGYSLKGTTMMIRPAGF

T2: membrane-anchored human Ang2 protein expressed on CHO-K1 cells (human, UniProt O15123 19-496)
T2 chain: T1 chain with G258E, V279I, L284F, V291I, A410G, G468A, G477D

T3: human Ang2 protein (R&D Systems, 623-AN-01M/CF; 623-AN/CF) (human, UniProt O15123 19-496)
T3 construct: Bought recombinant protein; also called Ang2 proteins; angiopoietin-2
T3 sequence (looked up): T1 chain with G258E, V279I, L284F, V291I, A410G, G468A, G477D

T4: human Ang2 protein (R&D Systems, 623-AN-01M/CF; 623-AN/CF) (human, UniProt O15123 19-496)
T4 chain: T1 chain with G258E, V279I, L284F, V291I, A410G, G468A, G477D

T5: mouse Ang2 protein (R&D Systems, 7186-AN-025/CF) (mouse, UniProt O35608 19-496, limits assumed)
T5 construct: Bought recombinant protein
T5 sequence (looked up): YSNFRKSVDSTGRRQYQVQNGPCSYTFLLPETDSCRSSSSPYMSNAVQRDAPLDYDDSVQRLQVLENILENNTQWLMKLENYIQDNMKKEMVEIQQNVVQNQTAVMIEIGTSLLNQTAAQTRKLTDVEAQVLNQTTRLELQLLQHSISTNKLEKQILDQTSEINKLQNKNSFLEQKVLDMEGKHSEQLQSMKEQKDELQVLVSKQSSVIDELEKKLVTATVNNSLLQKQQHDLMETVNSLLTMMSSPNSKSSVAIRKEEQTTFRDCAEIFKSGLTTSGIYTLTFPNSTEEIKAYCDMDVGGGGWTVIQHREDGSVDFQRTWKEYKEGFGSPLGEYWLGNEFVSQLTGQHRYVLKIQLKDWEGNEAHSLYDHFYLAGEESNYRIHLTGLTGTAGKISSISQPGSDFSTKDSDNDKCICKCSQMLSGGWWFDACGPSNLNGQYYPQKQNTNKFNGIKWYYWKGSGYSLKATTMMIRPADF

B1: 46H3H3 (antibody, V domains shown)
VH: EVKLVESGGGLVQPGGSRKLSCAASGFTFSDYGMVWVRQAPGKGLEWVAYIGSGRSTIYYADTVKGRFTISRDNPKNTLFLQMSSLRSEDTAMYYCAREDNGYSYAMDYWGQGTSVTVSS
VL: DIQMTQSPASQSASLGESVTITCLASQTIGTWLAWYQQKPGKSPQLLIYAATSLADGVPSRFSGSGSGTKFSFKISSLQAEDFVSYYCQQLYSTPLTFGAGTKLELK
notes: Hybridoma antibody purified with Protein-A beads
B2: 5A7B9 (antibody, V domains shown)
VH: QIQLVQSGPELKKPGETVKISCKASGYTFTNYGVNWVKQAPGKGLKWMGWINSYSGVPTYADDFKGRFAFSLETSASTAYLQINNLKNEDTATYFCARGENNYYGGSYDWGQGTTLTVSS
VL: SIVMTQTPKFLLVSAGDRVTITCKASQSVSNDVAWYQQKPGQSPKLLIYYASNRYTGVPDRFTGSGYGTDFTFTISTVQAEDLAVYFCQQDYSSPLTFGAGTKLELK
notes: as for B1
B3: 4D8F2 (antibody, V domains shown)
VH: DVQLQESGPGLVKPSQSLSLTCTVTGYSITSDYAWNWIRQFPGNKLEWMGYISYSGSTSYNPSLKSRISITRDTSKNQFFLQLNSVTTEDTATYYCARGVRGDMDYWGQGTSVTVSS
VL: B2 VL with L96F, A100S, L106I
notes: as for B1
B4: 42A2A6 (antibody, V domains shown)
VH: DVQLQESGPGLVKPSQSLSLTCTVTGYSITSDYAWNWIRQFPGNKLEWMGFINYSGTTSYNPSLKSRISLTRDTSKNQFFLQLNSVTTEDTATYYCARWGYSDFLYYFDYWGQGTTLTVSS
VL: QIVLSQSPAILSASPGEKVTMTCRASSSVSYIHWYQQKPGYSPKPWIYATSNLASGVPARFSGGGSGTSYSLTISRVEAEDAATYYCQQWSNNPWTFGGGTKLEIK
notes: as for B1
B5: 53E8B2-VH3-VL2 (antibody, V domains shown)
VH: EVQLVESGGGLVQPGGSLRLSCAASGFTFSDYAMAWVRQAPGKGLEWVATIIYDGSSTYYRDSVKGRFTISRDNAKNSLYLQMNSLRAEDTAVYYCARHGRVFGFGYFDYWGQGTLVTVSS
VL: DIQMTQSPSSVSASVGDRVTITCQASQDIGDWVAWYQQKPGRAPKLLIYGADRLADGVPSRFSGSGSGTDFTLTISSLQPEDFATYYCLQDYSPPFTFGQGTKLEIK
B6: 85E10B9-VH1-VL6 (antibody, V domains shown)
VH: QVQLVQSGAEVKKPGASVKVSCKASGYTFTNHYLHWVRQAPGQGLEWMGWIGPTNGDTSYAQKFKDRVTMTRDTSISTAYMELSRLRSDDTAVYYCAREGYFTNYFDYWGQGTLVTVSS
VL: DIQMTQSPSSLSASVGDRVTITCKASQNVIKYLAWYQQKPGKAPKRLIYNASSLQTGVPSRFSGSGSGTEFTLTISSLQPDDFATYYCLQYNSWWTFGQGTKVEIK
B7: 85E10B9-VH3-VL2 (antibody, V domains shown)
VH: B6 VH with G44R, M70I, I76A, R85S, D89E
VL: B6 VL with M4L, S10F, R46L, D81E, Q99G
B8: 85E10B9-VH3-VL1 (antibody, V domains shown)
VH: B6 VH with G44R, M70I, I76A, R85S, D89E
VL: B6 VL with A43V, R46L, E70D, D81E, F83V, Q99G
notes: Humanized antibody expressed in CHO-3E7; also called humanized 85E10B9 lead

For the first assay, the target named is T1, membrane-anchored cyno Ang2 protein …. The assay can be described thus: FACS. For orientation: In flow cytometry, cells or beads pass a laser one at a time.
As to B1, the EC50 is 0.342 nM. This counts as sub-nanomolar.

The molecule B2 gave an EC50 of 0.662 nM.

B3: a half-maximal effect (EC50) was put at 2.37 nM.

B4 registered an EC50 of 3.88 nM.

For a further assay, the target named is T2, membrane-anchored human Ang2 protein …. Kind of assay: FACS.
For the molecule B1, the midpoint of the response, the EC50, lay at 0.203 nM.

Molecule B2 yielded an EC50 of 0.369 nM. Compared with the last molecule, the EC50 is about 1.8-fold higher.

Molecule B3 displayed an EC50 of 1.69 nM. Against the preceding molecule, the EC50 is about 4.6-fold higher.

Take B4: the EC50 worked out at 7.84 nM.

The target in the next assay is T3, human Ang2 protein (R&D Systems, …). Kind of assay: indirect ELISA, human Ang2 coated at 0.5 µg/ml. As for the experimental part: (§1) The antibodies were tested for their binding activities to Ang2 in an indirect ELISA. Briefly, 100 μl of 0.5 μg/ml human or mouse Ang2 proteins (R&D Systems; 623-AN-01M/CF for human Ang2, 7186-AN-025/CF for mouse Ang2) were pre-coated onto ELISA plates overnight at 4° C. On the next day, the plates were incubated with […] diluted primary antibodies, with initial concentration at 1 μg/ml. The plates were added with HRP-conjugated goat anti-mouse IgG (H+L) and then TMB for chromogenic reaction. The antibody-antigen binding curves were generated with optical density readings at 450 nm. Raw data was plotted using GraphPad Prism v6.02 software with four parameters, and best-fit values program was used to analyze the EC₅₀.
With B1, the binding result is reported as “binds”.

Regarding B2, the binding result is “binds”.

Consider B3, for which the binding result is “binds”.

Regarding B4, the binding result is given as “binds”.

A further assay deals with T4, human Ang2 protein (R&D Systems, …). The assay can be described thus: ELISA.
On to B5, for which the concentration for a half-maximal effect (EC50) worked out at 4.35 ng/mL.

In turn, B6 came in with a concentration giving a half-maximal response (EC50) of 7.29 ng/mL.

Take B7: the half-maximal effective concentration (EC50) is 4.52 ng/mL.

Molecule B8 yielded an EC50 of 0.718 ng/mL.

The target of another assay is T5, mouse Ang2 protein (R&D Systems, …). The assay can be described thus: indirect ELISA, mouse Ang2 coated at 0.5 µg/ml. As for the experimental part:
as §1
Regarding B1, the binding result is “no binding (tested: initial concentration at 1 µg/ml)”.

On to B2, for which the binding result is reported as “no binding (tested: initial concentration at 1 µg/ml)”.

Consider B3, for which the binding result is on record as “no binding (tested: initial concentration at 1 µg/ml)”.

On to B4, for which the binding result is “no binding (tested: initial concentration at 1 µg/ml)”.

In the next assay the target is T3, human Ang2 protein (R&D Systems, …). Kind of assay: indirect ELISA, human Ang2 coated at 0.5 µg/ml, anti-human IgG-HRP. The method, then:
The humanized antibodies were tested for their binding activities to human Ang2 in an indirect ELISA. Briefly, 100 μl of 0.5 μg/ml human Ang2 proteins (R&D Systems; 623-AN-01M/CF) were pre-coated onto ELISA plates overnight at 4° C. On the next day, the plates were incubated with 100 μl 3× serially diluted primary antibodies, with initial concentration at 1 μg/ml. The plates were added with HRP-conjugated goat anti-human IgG antibody (Jackson, cat #109-605-098) and then TMB for chromogenic reaction. The antibody-antigen binding curves were generated with optical density readings at 450 nm. Antibody ABA and IgG1 were used as a positive and negative control respectively. Raw data was plotted using GraphPad Prism v6.02 software with four parameters, and best-fit values program was used to analyze the EC₅₀.
Background: In an ELISA, binding on a coated surface is turned into a signal by an enzyme label.
Take B8: the binding result is “binds”.

A further assay deals with T4, human Ang2 protein (R&D Systems, …). Kind of assay: ELISA. This is another data set of the same source.
B1: the midpoint of the response, the EC50, lay at 6.34 ng/mL.

Take B2: it took 7.47 ng/mL to reach a half-maximal effect (EC50).

On to B3, for which a half-maximal effect (EC50) was put at 7.17 ng/mL.

Regarding B4, the EC50 turned out to be 9.87 ng/mL.
